From publication PMC11252414, “Enhancing the performance of porous silicon biosensors: the interplay of nanostructure design and microfluidic integration” come the findings set out here.

Common to all, as to details: protein: commercial; label: none; single strand
Series [1] addresses T1, lactoferrin (LF) (bovine (milk), UniProt P24627 20-708). Nature of the series: RIFTS (porous Si interferometry); cell setup, selection buffer, Tris-passivated, 1 mM Mg2+; apparent; Selection buffer: PBS (137 mM NaCl, 10 mM Na2HPO4, 2.7 mM KCl, 2 mM KH2PO4) + 1 mM MgCl2, pH 7.4, room temperature; GI fluid at 37 C.
Series [2] deals with T1, lactoferrin (LF). The experiment in a line: RIFTS (porous Si interferometry); impeller-integrated microchannel, 30 ul/min; Selection buffer: PBS (137 mM NaCl, 10 mM Na2HPO4, 2.7 mM KCl, 2 mM KH2PO4) + 1 mM MgCl2, pH 7.4, room temperature; GI fluid at 37 C.
Series [3] addresses T1, lactoferrin (LF). The experiment in a line: RIFTS (porous Si interferometry); plain microchannel, 30 ul/min; Selection buffer: PBS (137 mM NaCl, 10 mM Na2HPO4, 2.7 mM KCl, 2 mM KH2PO4) + 1 mM MgCl2, pH 7.4, room temperature; GI fluid at 37 C.
Series [4] has as its target T1, lactoferrin (LF). The experiment in a line: RIFTS (porous Si interferometry); SHM (herringbone) microchannel, 30 ul/min; Selection buffer: PBS (137 mM NaCl, 10 mM Na2HPO4, 2.7 mM KCl, 2 mM KH2PO4) + 1 mM MgCl2, pH 7.4, room temperature; GI fluid at 37 C.
Series [5] deals with T1, lactoferrin (LF). Nature of the series: RIFTS (porous Si interferometry); PEG-passivated, LF-spiked porcine GI fluid, 37 C; apparent, LOD 600 nM suggests uM; Selection buffer: PBS (137 mM NaCl, 10 mM Na2HPO4, 2.7 mM KCl, 2 mM KH2PO4) + 1 mM MgCl2, pH 7.4, room temperature; GI fluid at 37 C.

T1 sequence (P24627 20-708): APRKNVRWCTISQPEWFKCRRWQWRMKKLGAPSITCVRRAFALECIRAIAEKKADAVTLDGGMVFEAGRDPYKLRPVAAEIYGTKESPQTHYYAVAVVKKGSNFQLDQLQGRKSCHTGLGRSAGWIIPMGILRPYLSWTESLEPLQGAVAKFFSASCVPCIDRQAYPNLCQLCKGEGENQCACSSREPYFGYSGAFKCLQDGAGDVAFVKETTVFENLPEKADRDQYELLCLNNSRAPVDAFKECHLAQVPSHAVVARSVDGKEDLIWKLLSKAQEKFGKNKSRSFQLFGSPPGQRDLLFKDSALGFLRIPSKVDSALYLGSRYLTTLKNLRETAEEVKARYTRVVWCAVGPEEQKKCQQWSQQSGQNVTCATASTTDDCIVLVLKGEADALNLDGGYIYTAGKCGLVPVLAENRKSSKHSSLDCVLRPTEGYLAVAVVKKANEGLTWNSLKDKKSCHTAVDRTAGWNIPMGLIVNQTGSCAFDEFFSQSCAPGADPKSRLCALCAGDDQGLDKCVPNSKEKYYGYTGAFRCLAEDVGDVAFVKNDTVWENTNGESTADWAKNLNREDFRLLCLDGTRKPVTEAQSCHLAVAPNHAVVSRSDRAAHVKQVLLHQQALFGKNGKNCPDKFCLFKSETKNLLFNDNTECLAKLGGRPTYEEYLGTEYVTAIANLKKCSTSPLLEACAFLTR

B1: Lac 9-2 anti-LF aptamer with T10 spacer (ssDNA)
DNA: CAGGCAGGACACCGTAACCGGTGCATCTATGGCTACTAGCTCTTCCTGCCTATTTTTTTTTT
modifications: 3'-amino, coupled via NHS/EDC to carboxylated porous Si
With B1, the Kd in the series with lactoferrin (LF) [1] was 2.1 ± 0.9 µM; in the series with lactoferrin (LF) [2], 1.3 ± 0.6 µM; in the series with lactoferrin (LF) [3] it was 2 ± 1 µM; with lactoferrin (LF) [4] it was 1.6 ± 0.6 µM; with lactoferrin (LF) [5] it was 0.0118 ± 0.0019 µM.
